From publication PMC3524506 come the findings set out here.

The test system of this series is OmpR-P-His6 (phosphorylated) (Yersinia enterocolitica O9 Ye9?). As to the kind of experiment: EMSA. Particulars: 40 mM Tris-HCl pH 8.0, 100 mM KCl, 10 mM MgCl2, 5% glycerol, room temperature 30 min, scale: fold lower minimum binding amount than non-phosphorylated OmpR.

The substance inv promoter fragment 553 bp had a binding signal of 3.
